Assay: FRET response of LuxP BAI-2 binding site mutant biosensors to BAI-2
Description: Site-directed mutations were carried out using the QuikChange mutagenesis kit (Stratagene). The perGFP plasmid containing the gene encoding the green fluorescent protein (GFP) is used for creating cyan and yellow variants CFP and YFP, respectively. An L221K mutation is introduced into the gene encoding CFP or YFP to reduce the possible level of intermolecular dimerization. Cloning vector pSP72 (Promega) is used for creating 5′ to 3′ end-to-end gene fusions of PCR fragments containing the genes encoding CFP (5′ KpnI/3′ EagI), V. harveyi LuxP (70 to 1095 bp; 5′ EagI/3′ NotI), and YFP (5′ NotI/3′ PstI), generating plasmid pSP72-CLPY. The CLPY gene fusion is removed using the restriction enzymes KpnI and PstI and subcloned into a pQE-30 bacterial expression vector (Qiagen) containing an N-terminal six-His tag, generating plasmid pQE30-CLPY. LuxP BAI-2 binding site mutants pQE30-M2CLPY (Q77A and S79A) and pQE30-M3CLPY (Q77A, S79A, and W82F) are created using pQE30-CLPY as a template and confirmed by DNA sequence analysis.
The YFP or CFP fluorescence response of wild-type and mutant forms of CLPY (1.0 mL, 0.015 mg/mL) to different ligands is measured 5 minutes after addition of the ligand to the protein at room temperature. No time-dependent changes in the CLPY FRET ratio are observed after incubation for 5 minutes. […]

B1: M3CLPY: CLPY with LuxP BAI-2 binding site mutations Q77A, S79A, and W82F (protein)
chain: MRGSHHHHHHGSACELGTMKGEELFTGVVPILVELDGDVNGHKFSVSGEGEGDATYGKLTLKFICTTGKLPVPWPTLVTTLTWGVQCFSRYPDHMKQHDFFKSAMPEGYVQQRTIFFKDDGNYKTRAEVKFEGDTLVNRIELKGIDFKEDGNILGHKLEYNYISHNVYITADKQKNGIKANFKIRHNIEDGSVQLADHYQQNTPIGDGPVLLPDNHYLSIQSALSKDPNEKRDHMVLKEFVTAAGITHGMDELYTADGVLNGYWGYQEFLDEFPEQRNLTNALSEAVRAQPVPLSKPTQRPIKISVVYPGQAVADYFVRNIASFEKRLYKLNINYQLNQVFTRPNADIKQQSLSLMEALKSKSDYLIFTLDTTRHRKFVEHVLDSTNTKLILQNITTPVREWDKHQPFLYVGFDHAEGSRELATEFGKFFPKHTYYSVLYFSEGYISDVRGDTFIHQVNRDNNFELQSAYYTKATKQSGYDAAKASLAKHPDVDFIYACSTDVALGAVDALAELGREDIMINGWGGGSAELDAIQKGALDITVMRMNDDTGIAMAEAIKWDLEDKPVPTVYSGDFEIVTKADSPERIEALKKRAFRYSDNGGAAAKGEELFTGVVPILVELDGDVNGHKFSVSGEGEGDATYGKLTLYFICTTGKLPVPWPTLVTTLGYGLKCFARYPDHMKQHDFFKSAMPEGYVQERTIFFKDDGNYKTRAEVKFEGDTLVNRIELKGIDFKEDGNILGHKLEYNYNSHNVYIMADKQKNGIKVNFKIRHNIEDGSVQLADHYQQNTPIGDGPVLLPDNHYLSYQSALSKDPNEKRDHMVLKEFVTAAGITHGMDELYK
FRET response to BAI-2 (qualitative) (following addition of BAI-2, compared to wild-type CLPY): insensitive to BAI-2 | FRET response relative to the wild-type biosensor (supersaturating BAI-2 (10 μM)): 18%

Source: patent US20120122115A1, “Bacterial quorum sensing biosensor” (priority 2006, published 2012)
